Measurements reported in the nanobody polyreactivity screen of Harvey et al. (2022).

Experiment: yeast display, Sf9 membrane polyspecificity reagent, FACS + sequencing; frameworks hold sequencing errors
Summary of the method: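 Nanobodies came from a synthetic yeast display library in Saccharomyces cerevisiae BJ5465, induced with galactose for 36–48 hours and stained for 1 hour at 4 °C with 10% biotinylated, detergent-solubilized Sf9 membrane reagent. Cells were enriched on streptavidin microbeads and then FACS-sorted, with low and high (top ~1%) gates set on anti-HA fluorescence for expression and streptavidin fluorescence for reagent binding. Each polyreactivity label reflects the gate a clone came from. Genes were amplified by colony PCR, sequenced by MiSeq 2 × 250 and filtered by CDR length.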
In the case of “QVQLVDSGGGLVQAGGSLRLSCAASGGTISSYAMGWYRQAPGKERELVADITRRGGSTYYADSVKGRFTISRDNAKNTVYLQMNSLKPEDTAVYYCAAEWFRQGHRGLDYWGQGTQVTVSS”, the “polyreactivity (PSR sort gate)” value is reported as “high polyreactivity”.
For “QVQLVDSGGGLVQAGGSLRLSCAASGIIFPVYAMGWYRQAPGKERELVAAITYSGDRTYYADSVKGRFTISRDNAKNTVYLQMNSLKPEDSAVYYCNARFGVWPYFYNEDDYWGQGTQVTVSS”, the “polyreactivity (PSR sort gate)” value was “low polyreactivity”.
In the case of “QVQLVDSGGGLVQAGGSLRLSCAASGIILVNNAMGWYRQAPGKEREFVAAIRYSAGSTYYADSVKGRFTISRDNAKTTVYLQMNSLKPEDTAVYYCNAVRYPTRGYYPYRYGYWGQGTQVNVSS”, the “polyreactivity (PSR sort gate)” value is reported as “high polyreactivity”.
In the case of “QVQLVDSGGGLVQAGGSLRLSCAASGITFGRYAMGWYRQAPGKERELVATITVNGGRTYYADSVKGRFTISRDNAKNTVYLQMNSLKPEDTAVYYCAAESAVDFDYWGQGTQVTVSS”, the “polyreactivity (PSR sort gate)” value is reported as “low polyreactivity”.
With “QVQLVDSGGGLVQAGGSLRLSCAASGITFNLNVMGWYRQAPGKERELVAAISRSGGRTYYADSVKGRFTISRDNAKNTVYLQMNSLKPEDTAVYYCDALSDRSSVPGDYWGQGTQVTVSS” the “polyreactivity (PSR sort gate)” value was “high polyreactivity”.
With “QVQLVDSGGGLVQAGGSLRLSCAASGRIFELYAMGWNTQATGKDRELVAVITNGGSTYYADSVKGRFTISRDNAKNTVYLQLNSLKPEDTAVYYCNGRRGYNRVGGSYGYWGQGTQVTVSS” the “polyreactivity (PSR sort gate)” value was “low polyreactivity”.
In the case of “QVQLVDSGGGLVQAGGSLRLSCAASGRIFGVNAMGWYRQAPGKERELVAAINFSGGGTYYADSVKGRFTISRDNAKNTVYLQMNSLKPEDTAVYYCAADGPDYKWYYELDYWGQGTQVTVSS”, the “polyreactivity (PSR sort gate)” value is reported as “low polyreactivity”.
In the case of “QVQLVDSGGGLVQAGGSLRLSCAASGRIFSENAMVWYRQSRGKERELVAAITANGGDTYYADSVKGRFTISRDNAKNTVYLQMNSLKPEDTAVYYCAAETGGLGGDYWGQGTQVTVSS”, the “polyreactivity (PSR sort gate)” value is reported as “low polyreactivity”.
In the case of “QVQLVDSGGGLVQAGGSLRLSCAASGRIFYQYAMGWYRQAPGKERELVAGISKRGGSTYYADSVKGRFTISRDNAKNTVYLQMNSLKPEDTAVYYCARGGYPGSAEYDYWGQATQVTVSS”, the “polyreactivity (PSR sort gate)” value is reported as “high polyreactivity”.
With “QVQLVDSGGGLVQAGGSLRLSCAASGRILSTYPMGWYRPAPGKERELVAAITRTSGSTYYADSVKGRFTISRDNAKNTVFLQMNSLKPEDTEVYYCAADTWLITWSGQYNSWGQGTQVTVSS” the “polyreactivity (PSR sort gate)” value was “low polyreactivity”.
In the case of “QVQLVDSGGGLVQAGGSLRLSCAASGRTFDNYAMGWYRQAPGKERELVAAISSSGGRTYYADSVKGRFTISRDNAKNTVYLQMNSLKPEDTAVYYCAAVWPVYRTHPGMDYWGHGTQVTVSS”, the “polyreactivity (PSR sort gate)” value is reported as “high polyreactivity”.
For “QVQLVDSGGGLVQAGGSLRLSCAASGRTFDVYTMGWYRQAPGKERELVAAINGGGSTYYADSVKGRFTISRDNAKNTVYLQMNTLKPEDTAVYYCAAKLRAGRSSYYWGQGTQVTVSS”, the “polyreactivity (PSR sort gate)” value was “high polyreactivity”.
With “QVQLVDSGGGLVQAGGSLRLSCAASGRTFGYNAMGCYRQATGKERELVAAISSSGGSTYYADSVKGRFTISRDYAKNTVYLQMNSLKPEDTAVYYCATQGYSWAHGSDFWGQGTQVTVSS” the “polyreactivity (PSR sort gate)” value was “low polyreactivity”.
With “QVQLVDSGGGLVQAGGSLRLSCAASGRTFGYYAMGWYRQAPGKERELVAAISWRGTSTYYADSVKGRFTISRDNAKNTVYLQMNSLKPEDTAVYYCAVGRTVAHRFIAGDYWGQGTQVTVSS” the “polyreactivity (PSR sort gate)” value was “high polyreactivity”.
For “QVQLVDSGGGLVQAGGSLRLSCAASGRTFYFNAMGWYRQAPGKERELVAAITSSDSTYYADSVKGRFTISRDNAKNTVYLQMISLKPEDTAVYYCNADYFYWREMDYWGQGTQVTVSS”, the “polyreactivity (PSR sort gate)” value was “low polyreactivity”.
In the case of “QVQLVDSGGGLVQAGGSLRLSCAASGRTFYRNAMGWYRQAPGKVRELVAGISSGGFTYYADSVKGRFTITRDNAKNTFYLQMNSLKPEDTPVYYCAASAWSGYWFDYWGQGTQVTVSS”, the “polyreactivity (PSR sort gate)” value is reported as “high polyreactivity”.
In the case of “QVQLVDSGGGLVQAGGSLRLSCAASGRTFYTNAMGWYRQAPRKERQLVAAITRGGSTYYADSVKGRFTISRDNAKNTVYLQMNSLKPEDTAVYYCAADGRFRSHTFYYWGQGTQVTVSS”, the “polyreactivity (PSR sort gate)” value is reported as “high polyreactivity”.
For “QVQLVDSGGGLVQAGGSLRLSCAASGRTIGGNAMGWSRQAPGKERELVAGINISGGSTNYADSVKGRFTISRDNAKNTVYLQMNSLKPEDTAVYYCNADTAVYAWDDDYWGQGTQVTVSS”, the “polyreactivity (PSR sort gate)” value was “low polyreactivity”.
In the case of “QVQLVDSGGGLVQAGGSLRLSCAASGRTILINAMGWDRQAPGKERELVAGITRNGGTTYYADSVKGRFTISRDNAKNTVYLQMNSLKPEDTAVYYCAKRYPSWFNYWGQGTQVTVSS”, the “polyreactivity (PSR sort gate)” value is reported as “high polyreactivity”.
For “QVQLVDSGGGLVQAGGSLRLSCAASGSIFDPNAMGWYRQAPGKERELVADIDSSDGSTYYADSVKGRFTISRDNAKNTVYLQMNSLKPEDTAVYYCNALSALAVEDGYWGQGTQVTVSS”, the “polyreactivity (PSR sort gate)” value was “low polyreactivity”.
For “QVQLVDSGGGLVQAGGSLRLSCAASGSIFDSYVKGWYRQAPGKERELVAAITYSGGSTYADSVKGRFTISRDNAKNTVYLQMNSLKPEDTAVYYCAAASYFYMFLLEDYWGQGTHVTVSS”, the “polyreactivity (PSR sort gate)” value was “low polyreactivity”.
For “QVQLVDSGGGLVQAGGSLRLSCAASGSIFEGYVMGWYRQAPGKERELVAAITTGGGSTYYADSVKGRFTISRDNAKNTVDLPMNSLKPEDTAVYYCAKDYWFGYEYWGQGTQVTVSS”, the “polyreactivity (PSR sort gate)” value was “low polyreactivity”.
For “QVQLVDSGGGLVQAGGSLRLSCAASGSIFGYYTMGWYRQAPGKERELVAAITSGGSTKYADSVKGRITISRDNAKNTVYLQMNCLKPEDTAVYYCAKVSYYPWRYDYWGPGTQVTVSS”, the “polyreactivity (PSR sort gate)” value was “low polyreactivity”.
For “QVQLVDSGGGLVQAGGSLRLSCAASGSIFKFYTMGWYRQAPGKERQLVAAISSSDGSTHYADSVKGRFTISRDNAKNTVYLQMNSLKPEDTAVYYCARRRYSRYSVTRGNYWGQGTQVTVSS”, the “polyreactivity (PSR sort gate)” value was “high polyreactivity”.
For “QVQLVDSGGGLVQAGGSLRLSCAASGSIFLAYAMGWYRQAPGKEREFVAAISFSDGSTYYADSVKGRFTISRDNAKNTVYLQMNSLKPEDTAVYYCNKGASPDDYDFWGQGTQVTVSS”, the “polyreactivity (PSR sort gate)” value was “low polyreactivity”.
With “QVQLVDSGGGLVQAGGSLRLSCAASGSIFRGYAMGWYRQAPGKERELVAAIRRRAGTTYYADSVKARFTISRDNAKNTVYLQMNSLKPEDTAVYYCAVERYHSGDDYLGQGTQVTVSS” the “polyreactivity (PSR sort gate)” value was “high polyreactivity”.
In the case of “QVQLVDSGGGLVQAGGSLRLSCAASGSIFYVYAMGWYRQAPGKERELVAAISWTGGSTDYADSVKGRFTISRDNAKNTVYLHMNSLKPEDTAVYYCATELGYGDWYNYWGQGTQVTVSS”, the “polyreactivity (PSR sort gate)” value is reported as “low polyreactivity”.
For “QVQLVDSGGGLVQAGGSLRLSCAASGSIIFYNAMGWYRQAPGKERELVAAISRGGNTNYADSVKGRFTISRDNAKNNFYLQMNSLKSEDTAVYYCNADLVQYWGRRRWYDYWGQGTQVTVSS”, the “polyreactivity (PSR sort gate)” value was “low polyreactivity”.
For “QVQLVDSGGGLVQAGGSLRLSCAASGSIIGVNAMGWYRQAPGKERELVAAISWSGSSTRYADSVKGRFTISRDNAKNTVYLQMNSLKPEDTAVYYCAAEAQTKWWDYYYWGQGTQVTVSS”, the “polyreactivity (PSR sort gate)” value was “high polyreactivity”.
In the case of “QVQLVDSGGGLVQAGGSLRLSCAASGSIVVLYAMGWYRQAPGKERELVAAITSGASTNYADSVKGRFTISRDNAKNTVYLQMNSLKPEDTAVYYCHTGSRLDRVDSWGQGTQVTVSS”, the “polyreactivity (PSR sort gate)” value is reported as “low polyreactivity”.
With “QVQLVDSGGGLVQAGGSLRLSCAASGSNFTKYAMGWYRQAPGKERELVAAILRSGDRTYYADSVKGRFTISRDNAKNTVYLQMTSMIPEDTAVYYCAAGYSQYWTDPQGFAYDYWGQGTQVTVSS” the “polyreactivity (PSR sort gate)” value was “low polyreactivity”.
For “QVQLVDSGGGLVQAGGSLRLSCAASGSNYVDYDMGWYRQAPGKERDLVAALTYSGARTYYADSVKGRFTISRDNAENTVYLQMNSLKPEDTAVYYCNAAGYPYPYRGDYDYWGQGTQVTVSS”, the “polyreactivity (PSR sort gate)” value was “low polyreactivity”.
With “QVQLVDSGGGLVQAGGSLRLSCAASGSTFKYYGMGWYRQAPGKERELVASISSSGTRTYYADSVKGRFTISRDNAKNTVYLQMNSLKAEDTAVYYCAADSYATYFLYDSWGQGTQVTVSS” the “polyreactivity (PSR sort gate)” value was “low polyreactivity”.
For “QVQLVDSGGGLVQAGGSLRLSCAASGSTFRRNAMGWYRHAPGKERELVAAINRRGGDTYYADSVKGRFTISCDNAKNTVYLQMNSLKPEDTAVYYCAAEWQSVAFDWGGYGDDYWGQGTQVTVSS”, the “polyreactivity (PSR sort gate)” value was “low polyreactivity”.
For “QVQLVDSGGGLVQAGGSLRLSCAASGSTFVYYAMGWYRQAPGKERELVAAITWNGGSTYYADSVKGRFTISRDNAKNTVYLQMNSLKPEDTAVYYCNAEYPVYFEGYPYYWDYWGDSWGQGTQVTVSS”, the “polyreactivity (PSR sort gate)” value was “high polyreactivity”.
For “QVQLVDSGGGLVQAGGSLRLSCAASGSTIKYYAMGWYRQEPGKERELVAAINWSGDSTYYADSVKGRFTISRDYAKITVYLQKISLKPEDTAVYYCAVRYQKRAYYGSNYWGQGTQVTVSS”, the “polyreactivity (PSR sort gate)” value was “high polyreactivity”.
For “QVQLVDSGGGLVQAGGSLRLSCAASGSTYGLYAMGWYRQATGKERELVAAITWRASSTYYADSVKGRFTISRDNAKNTVFLQMNSLKPEDTAVYYCAATWYSRFSRGDYDYWGQGTQVTVSS”, the “polyreactivity (PSR sort gate)” value was “high polyreactivity”.
For “QVQLVDSGGGLVQAGGSLRLSCAASGYTFGNNARAWYRQAPGKERELVARIRTNGGTTYYADSVKGRFTISRDNAKYTVYLQMNSLKPEDTAVYYCNAYRGYEYDYWGQGTQVTVSS”, the “polyreactivity (PSR sort gate)” value was “low polyreactivity”.
For “QVQLVDSGGGLVQAGGSLRLSCADSGRTFWGYGKGWYRQATGKERELVATISSGGSTYYADSVKGRFTISRDNAKNTVYLQMNSLKPEDTAVYYCAARPPPTYWRYQSDYWGQGTQVTVSS”, the “polyreactivity (PSR sort gate)” value was “high polyreactivity”.
For “QVQLVDSGGGLVQAGGSLRLSCADSGSIFGVYAMGWYRQATGKESELVAAISISDGITYYADSVKGRFTISRDNAKNNVYLQMNSLKPEDTAVYYCAAELSPYYYGESYDYWGQGTQVTVSS”, the “polyreactivity (PSR sort gate)” value was “high polyreactivity”.
With “QVQLVDSGGGLVQAGGSLRLSCAPSGFTIYKYVMGWDRQAPGKDREVVAAITTCGGSTYYADSVKGRFTISRDYAKNTVYLQMNSLKPEHTAVDYCNARSLHTSEGDYWGQGTQVTVSS” the “polyreactivity (PSR sort gate)” value was “low polyreactivity”.
